According to CN101798349A (INST BIOENGINEERING AMMS, dated 2010):

Target: T1, uPAR蛋白 (尿激酶型纤溶酶原激活物受体, R&D Systems 807-UK-100) (UniProt Q03405 23-303, limits assumed)
T1 construct: Bought protein; also called 抗原uPAR
Experiment: SPR, Biacore 3000, CM5 chip, HBS-EP pH 7.4, 0-100 nmol/L, mean of 3 repeats

T1 sequence (Q03405 23-303 limits assumed): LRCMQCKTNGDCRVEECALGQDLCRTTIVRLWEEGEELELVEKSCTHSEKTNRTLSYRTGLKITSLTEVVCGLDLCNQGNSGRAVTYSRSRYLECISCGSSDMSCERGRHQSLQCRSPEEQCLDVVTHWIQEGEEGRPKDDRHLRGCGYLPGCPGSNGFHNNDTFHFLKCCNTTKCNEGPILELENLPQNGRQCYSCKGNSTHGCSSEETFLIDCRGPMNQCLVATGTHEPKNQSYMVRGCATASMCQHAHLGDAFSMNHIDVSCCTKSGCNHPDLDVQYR

B1: 抗uPAR人源化抗体Y2B (antibody, V domains shown)
VH: EVQLVQSGAEVKKPGSSVKVSCKASGYTFTDYYIHWVRQAPGQGLEWIGWIFHGSDNTEYNEKFKSKATITADESTSTAYMELSSLRSEDTAVFYCARWGPHWYFDAWGRGTLVTVSP
VL: DIQMTQSPSTLSASVGDRVTITCRASSSVSYIHWYQQKPGRAPKPLMYEASSRATGVPSRFSGSGSGTEYTLTISSLQSDDFATYYCQQWNYPFTFGQGTKLEIKR
notes: also called 抗uPAR抗体Y2B; Y2B抗体
- Kd: 14.9 nM
